{"source": "patent US8236925", "about": "(UNIVERSITY OF MINNESOTA, dated 2012)", "target": "the molecule itself", "data": [{"protein": "E. coli dihydrofolate reductase (DHFR) (enzyme) MISLIAALAVDRVIGMENAMPWNLPADLAWFKRNTLNKPVIMGRHTWESIGRPLPGRKNIILSSQPGTDDRVTWVKSVDEAIAACGDVPEIMVIGGGRVYEQFLPKAQKLYLTHIDAEVEGDTHFPDYEPDDWESVFSEFHDADAQNSHSYCFEILERR", "values": [{"measurement": "selectivity of dimerization for E. coli DHFR relative to mouse DHFR", "result": "> 1e+07"}, {"measurement": "ΔG of favorable protein-protein interactions", "result": "≥ -3.1", "unit": "kcal/mol"}]}]}
